Experimental findings from US20180022808A1 are described below.

The target of this assay is recombinant Phl p 2 (Biomay AG) (UniProt P43214). Kind of assay: flow cytometry scatter plot on 16HBE14o- cells pre-incubated with 1 µg of the conjugate at ratio 1:0.25, then 1 µg Phl p 2, rabbit anti-Phl p 2 (FIG. 3 C).
Sequence of UniProt P43214 (P43214 27-122 limits assumed): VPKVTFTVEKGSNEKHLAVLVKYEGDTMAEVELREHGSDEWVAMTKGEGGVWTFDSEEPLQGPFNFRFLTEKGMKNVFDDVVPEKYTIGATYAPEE

Regarding “P2/ICAM1 bi-specific antibody conjugate (streptavidin-conjugated Phl p 2-specific human IgG1 coupled to biotin-labeled ICAM1-specific mouse IgG1) (from UniProt P22629 37-163) (bispecific antibody)”, the percent of cells with Phl p 2 bound to their cell surface was 50%.
